The text below walks through data of patent publication US20220275100A1 (JIANGSU HENGRUI MEDICINE, published 2022).

The labels stand for the following.
B1: h160-01 (antibody, human IgG1, kappa)
heavy: not shown
light: DIVMTQSPASLAVSLGERATINCRASESVDNYGISFMHWYQQKPGQPPKLLIYRASNLESGVPDRFSGSGSGTDFTLTISSLQAEDVAVYYCQQTNKDPLTFGGGTKVEIKRTVAAPSVFIFPPSDEQLKSGTASVVCLLNNFYPREAKVQWKVDNALQSGNSQESVTEQDSKDSTYSLSSTLTLSKADYEKHKVYACEVTHQGLSSPVTKSFNRGEC
notes: Humanized, human IgG1 / kappa; h160 VH1 + h160 VL1
B2: h011-05 (antibody, human IgG1, kappa, V domains shown)
VH: EVQLVESGGGLVQPGGSLRLSCAASGFTFSDYGMHWVRQAPGKGLEWVAFISSGSSSIYYADTVKGRFTISRDNAKSSLYLQMTSLRAEDTAVYYCARNYVSSYGYFDYWGQGTTVTVSS
VL: DIVMTQSPDSLAVSLGERATINCRASENVDNYGISFMHWYQQKPGQPPKLLIYRASNLESGIPDRFSGSGSRTDFTLTISSLQAEDVATYYCQQSNKDPLTFGGGTKVEIKR
B3: h011-03 (antibody, human IgG1, kappa, V domains shown)
VH: B2 VH
VL: B2 VL with I62V, T89V
B4: h160-02 (antibody, human IgG1, kappa)
heavy: not shown
light: B1 light with M4L
B5: h011-04 (antibody, human IgG1, kappa, V domains shown)
VH: B2 VH with Y80F, Y95S
VL: B2 VL with I62V, T89V
B6: h160-04 (antibody, human IgG1, kappa, V domains shown)
VH: B2 VH with S53T, S57N, A61V, T63K, S77N, S78T
VL: B2 VL with M4L, D9A, N22S, N28S, D64A, T89V, S95T
B7: h011-02 (antibody, human IgG1, kappa, V domains shown)
VH: B2 VH with Y80F, Y95S
VL: B2 VL with I62V, R72G, T89V
B8: h160-08 (antibody, human IgG1, kappa, V domains shown)
VH: B2 VH with V48I, S53T, S57N, A61V, T63K, S77N, S78T
VL: B2 VL with M4L, D9A, N22S, N28S, D64A, T89V, S95T
B9: h011-01 (antibody, human IgG1, kappa)
heavy: not shown
light: B1 light with A9D, S28N, T95S
notes: Humanized, human IgG1 / kappa; h011 VH1 + h011 VL1
B10: h160-06 (antibody, human IgG1, kappa)
heavy: not shown
light: B1 light with M4L
B11: h160-05 (antibody, human IgG1, kappa)
heavy: not shown
light: B1 light
B12: h160-03 (antibody, human IgG1, kappa, V domains shown)
VH: B2 VH with S53T, S57N, A61V, T63K, S77N, S78T
VL: B2 VL with M4L, D9A, N28S, I62V, D64A, T89V, S95T
B13: h160-07 (antibody, human IgG1, kappa, V domains shown)
VH: B2 VH with V48I, S53T, S57N, A61V, T63K, S77N, S78T
VL: B2 VL with M4L, D9A, N28S, I62V, D64A, T89V, S95T
B14: ch-009 (antibody, human IgG1, V domains shown)
VH: EFQLQQSGPELVKPGASVKISCKASGYSFTDYNLNWVKQSNGKSLEWIGVINPKYDAINYNQKFKDKATLTVDQSSSTAYMQLSSLTSEDSAVYYCAREGWGKALDYWGPGTSVIVSS
VL: DFVLTQSPATLSVTPGDSVSLSCRASQSIYTNLHWYQQKSHESPRLLIKYASQSISGIPSRFSGSGSGTDFTLSINSVETEDSGMYFCQQSNSWPLTFGAGTKLELK
notes: also called chimeric antibody of hybridoma clone m009
B15: ch-011 (antibody, human IgG1, V domains shown)
VH: B2 VH with Q13K, R19K, G42E, S77N, S78T, Y80F, A88S, V93M, Y95S, V116L
VL: DIVMTQSPASLAVSLGQRATISCRASENVDNYGISFMHWYQQKPGQPPKLLIYRASNLESGIPARFSGSGSRTDFTLTINPVETDDVATYYCQQSNKDPLTFGSGTKLEIK
notes: also called chimeric antibody of hybridoma clone m011
B16: h011-06 (antibody, human IgG1, kappa, V domains shown)
VH: B2 VH with Y80F, Y95S
VL: B2 VL
B17: h009-07 (antibody, human IgG1, kappa)
heavy: not shown
light: EIVLTQSPATLSLSPGERATLSCRASQSIYTNLHWYQQKPGQSPRLLIKYASQSISGIPARFSGSGSGTDFTLTISSLEPEDFAVYYCQQSNSWPLTFGGGTKVEIKRTVAAPSVFIFPPSDEQLKSGTASVVCLLNNFYPREAKVQWKVDNALQSGNSQESVTEQDSKDSTYSLSSTLTLSKADYEKHKVYACEVTHQGLSSPVTKSFNRGEC
notes: Humanized, human IgG1 / kappa; h009 VH2 + h009 VL2
B18: h009-11 (antibody, human IgG1, kappa, V domains shown)
VH: EVQLVQSGAEVKKPGASVKVSCKASGYTFTDYNLNWVRQAPGQRLEWMGVINPKYDAINYNQKFKDRVTITRDTSASTAYMELSSLRSEDTAVYYCAREGWGKALDYWGQGTLVTVSS
VL: EFVLTQSPATLSLSPGERATLSCRASQSIYTNLHWYQQKPGQSPRLLIKYASQSISGIPARFSGSGSGTDFTLTISSLEPEDFAVYFCQQSNSWPLTFGGGTKVEIKR
B19: h009-13 (antibody, human IgG1, kappa, V domains shown)
VH: B18 VH with V2F, R44S, M48I, V68A, R72V
VL: B18 VL
B20: h009-10 (antibody, human IgG1, kappa, V domains shown)
VH: B18 VH with V2F, R38K, R44S, M48I, R67K, V68A, I70L, R72V, T74Q
VL: B18 VL with F2I, F87Y
B21: h009-09 (antibody, human IgG1, kappa, V domains shown)
VH: B18 VH with V2F, R38K, R44S, R67K, I70L, R72V, T74Q
VL: B18 VL with F2I, F87Y
B22: h009-12 (antibody, human IgG1, kappa, V domains shown)
VH: B18 VH with V2F, R44S, R72V
VL: B18 VL
B23: h009-14 (antibody, human IgG1, kappa, V domains shown)
VH: B18 VH with V2F, R38K, R44S, R67K, I70L, R72V, T74Q
VL: B18 VL
B24: h009-15 (antibody, human IgG1, kappa, V domains shown)
VH: B18 VH with V2F, R38K, R44S, M48I, R67K, V68A, I70L, R72V, T74Q
VL: B18 VL
B25: h009-08 (antibody, human IgG1, kappa, V domains shown)
VH: B18 VH with V2F, R44S, M48I, V68A, R72V
VL: B18 VL with F2I, F87Y

Positions count from the first letter of the chain named.

For this experiment, the target named is T1, Fusion protein of CD38 extracellular domain with His tag: CD38-ECD-His (human, UniProt P28907 43-300).
T1 construct: unlabelled analyte in Biacore; also called human CD38-ECD-His; Human CD38-His
Kind of experiment: SPR (Biacore), antibody captured by anti-human Fc, CD38-ECD-His as analyte.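 Also: human CD38-ECD-His flowed over the captured antibody with the signal tracked in real time, and association and dissociation curves were fitted to derive the affinity values.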 In general terms: SPR reads the build-up and loss of mass on a sensor chip optically.
Experimental: Then the human CD38-ECD-His antigen passed through the surface of the chip, and a real-time detection for the reaction signal was performed with Biacore instrument. The resulting binding and dissociation curves were fitted to calculate the affinity values. After the dissociation of each cycle was completed in the experiment, the biochip was washed and regenerated with the regeneration solution supplied in the Human Fc Capture Kit (GE).
Broadly, the Kd is the equilibrium constant for the complex coming apart. Read a low Kd as higher affinity. In general, koff refers to the first-order rate constant of dissociation. A low value points to a long-lived complex. As a reminder, the kon is a measure of how fast the partners come together. B1 showed a Kd of 0.0687 nM, an off-rate constant (koff) of 0.000136 s⁻¹ and a kon of 1.99e+06 M⁻¹ s⁻¹.

The molecule B2 registered a Kd of 0.309 nM, an off-rate constant (koff) of 0.00213 s⁻¹ and a kon of 6.89e+06 M⁻¹ s⁻¹.

The molecule B3 displayed an equilibrium dissociation constant (Kd) of 0.306 nM, a koff of 0.00213 s⁻¹ and a kon of 6.97e+06 M⁻¹ s⁻¹.

Molecule B4 yielded a Kd of 0.0846 nM, a koff of 0.000163 s⁻¹ and a kon of 1.93e+06 M⁻¹ s⁻¹.

The molecule B5 displayed a Kd of 0.299 nM, a koff of 0.00202 s⁻¹ and a kon of 6.76e+06 M⁻¹ s⁻¹.

On to B6, for which the Kd stood at 0.0867 nM, the koff was 0.000184 s⁻¹ and the kon was determined as 2.12e+06 M⁻¹ s⁻¹.

B7 displayed a Kd of 0.297 nM, a koff of 0.00195 s⁻¹ and a kon of 6.59e+06 M⁻¹ s⁻¹.

Regarding B8, the dissociation constant (Kd) amounted to 0.0782 nM, the koff was determined as 0.000179 s⁻¹ and the on-rate (kon) was 2.29e+06 M⁻¹ s⁻¹.

B9 returned a Kd of 0.311 nM, an off-rate (koff) of 0.00208 s⁻¹ and an association rate constant (kon) of 6.68e+06 M⁻¹ s⁻¹.

With B10, binding was characterised by a dissociation constant (Kd) of 0.0782 nM, the koff was 0.000164 s⁻¹ and the kon is 2.09e+06 M⁻¹ s⁻¹.

Take B11: the Kd is 0.0691 nM, the off-rate (koff) was found to be 0.000141 s⁻¹ and the kon was 2.05e+06 M⁻¹ s⁻¹.

In the case of B12, the affinity, expressed as Kd, was 0.0779 nM; the koff was 0.000187 s⁻¹; the kon worked out at 2.4e+06 M⁻¹ s⁻¹.

With B13, the Kd is 0.0748 nM, the off-rate (koff) was 0.000182 s⁻¹ and the kon stood at 2.43e+06 M⁻¹ s⁻¹.

B14 came in with a Kd of 0.234 nM, an off-rate (koff) of 0.000477 s⁻¹ and an on-rate (kon) of 2.04e+06 M⁻¹ s⁻¹.

B15 came in with a Kd of 0.199 nM, a koff of 0.00148 s⁻¹ and a kon of 7.46e+06 M⁻¹ s⁻¹.

In turn, B16 registered a Kd of 0.3 nM, a koff of 0.00201 s⁻¹ and a kon of 6.71e+06 M⁻¹ s⁻¹.

The molecule B17 gave a Kd of 0.995 nM, a koff of 0.0021 s⁻¹ and a kon of 2.11e+06 M⁻¹ s⁻¹.

B18 displayed a dissociation constant Kd of 5.17 nM, a koff of 0.0121 s⁻¹ and a kon of 2.33e+06 M⁻¹ s⁻¹.

B19 returned a Kd of 0.465 nM, a koff of 0.00106 s⁻¹ and a kon of 2.28e+06 M⁻¹ s⁻¹.

As for B20, binding was put at a Kd of 2.12 nM, the koff was 0.00433 s⁻¹ and the kon worked out at 2.04e+06 M⁻¹ s⁻¹.

As for B21, the dissociation constant Kd came to 2.14 nM, the koff was determined as 0.00489 s⁻¹ and the kon is 2.29e+06 M⁻¹ s⁻¹.

As to B22, the dissociation constant Kd was found to be 0.409 nM, the koff came to 0.000917 s⁻¹ and the kon was determined as 2.24e+06 M⁻¹ s⁻¹.

Regarding B23, the Kd is 0.815 nM, the koff came out at 0.00185 s⁻¹ and the kon stood at 2.27e+06 M⁻¹ s⁻¹.

In turn, B24 came in with a Kd of 0.745 nM, a koff of 0.0017 s⁻¹ and a kon of 2.28e+06 M⁻¹ s⁻¹.

On to B25, for which binding was characterised by a dissociation constant (Kd) of 1.18 nM, the koff was found to be 0.00223 s⁻¹ and the kon was 1.89e+06 M⁻¹ s⁻¹.
